Experimental data taken from patent publication US20150330981A1 (published 2015).
Values belong to the molecule of their own block, whether it stands above or below them.

Assays:
[1] = molecular target: T1, GST-PGC-1β (1-367 aa; GST-P5) (UniProt Q8VHJ7)
T1 sequence: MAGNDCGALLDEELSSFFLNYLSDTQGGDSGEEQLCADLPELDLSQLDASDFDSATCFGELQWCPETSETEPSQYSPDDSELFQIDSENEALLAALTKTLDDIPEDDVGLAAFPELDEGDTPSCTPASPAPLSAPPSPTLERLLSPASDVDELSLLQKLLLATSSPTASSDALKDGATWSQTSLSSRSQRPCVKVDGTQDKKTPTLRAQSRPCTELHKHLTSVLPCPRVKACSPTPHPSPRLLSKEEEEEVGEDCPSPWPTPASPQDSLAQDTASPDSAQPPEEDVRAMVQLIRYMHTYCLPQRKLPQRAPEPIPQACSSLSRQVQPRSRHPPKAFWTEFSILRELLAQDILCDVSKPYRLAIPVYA

[2] = molecular target: T2, HA PGC-1β (full-length mouse PGC-1β with HA tag), Q8VHJ7
T2 chain: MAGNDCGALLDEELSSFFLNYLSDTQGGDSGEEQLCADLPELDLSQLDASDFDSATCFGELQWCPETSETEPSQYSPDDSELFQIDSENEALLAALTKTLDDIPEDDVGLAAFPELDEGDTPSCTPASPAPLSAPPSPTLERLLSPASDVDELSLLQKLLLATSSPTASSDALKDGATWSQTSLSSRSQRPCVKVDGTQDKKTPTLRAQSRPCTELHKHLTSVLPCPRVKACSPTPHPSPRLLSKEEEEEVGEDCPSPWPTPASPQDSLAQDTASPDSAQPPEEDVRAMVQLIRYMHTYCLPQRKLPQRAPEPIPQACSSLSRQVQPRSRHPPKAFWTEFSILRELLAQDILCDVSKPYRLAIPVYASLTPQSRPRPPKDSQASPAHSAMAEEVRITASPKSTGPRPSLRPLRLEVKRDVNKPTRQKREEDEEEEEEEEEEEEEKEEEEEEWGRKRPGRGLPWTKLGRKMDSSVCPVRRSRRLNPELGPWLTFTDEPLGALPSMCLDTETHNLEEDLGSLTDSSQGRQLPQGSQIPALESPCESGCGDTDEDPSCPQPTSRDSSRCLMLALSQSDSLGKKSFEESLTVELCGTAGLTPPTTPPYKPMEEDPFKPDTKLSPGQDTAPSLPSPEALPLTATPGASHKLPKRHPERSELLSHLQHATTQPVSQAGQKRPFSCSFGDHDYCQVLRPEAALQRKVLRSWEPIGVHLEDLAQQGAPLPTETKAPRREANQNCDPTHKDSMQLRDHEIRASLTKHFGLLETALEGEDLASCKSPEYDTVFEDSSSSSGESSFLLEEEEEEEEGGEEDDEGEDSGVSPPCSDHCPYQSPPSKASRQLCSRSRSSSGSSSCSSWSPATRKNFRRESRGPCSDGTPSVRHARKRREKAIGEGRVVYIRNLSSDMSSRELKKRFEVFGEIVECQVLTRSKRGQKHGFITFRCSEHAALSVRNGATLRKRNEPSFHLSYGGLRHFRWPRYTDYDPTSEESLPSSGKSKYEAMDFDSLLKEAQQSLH

[3] = molecular target: T3, HA PGC-1β (full-length mouse PGC-1β with HA tag) (mouse, UniProt Q8VHJ7 1-1014); test: co-immunoprecipitation with anti-FLAG from HEK-293T extract, anti-HA Western blot
T3 construct: also called mPGC-1β; pcDNA3 HAPGC-1β; not shown: HA tag from pcDNA3 HA vector
T3 sequence (looked up): T2 chain
Experimental: Whether synoviolin and PGC-1β actually form a complex in in vivo was investigated. Specifically, a plasmid for expressing PGC-1β with HA tag (HA PGC-1β) and a plasmid for expressing synoviolin with FLAG tag (SYVN1/FLAG) or the modified synoviolin with FLAG tag (SYVN1ΔSyU/FLAG) were transfected in HEK-293T cells. Whole cell extract from the HEK-293T cells transfected with the expression plasmids was prepared to immunoprecipitate using anti-FLAG antibody. Proteins bound to the anti-FLAG antibody were eluted and separated by SDS-PAGE, and Western blot was performed using anti-HA antibody and the anti-FLAG antibody.

[4] = molecular target: T3, HA PGC-1β (full-length mouse PGC-1β …); test: cell-based or functional assay
[5] = molecular target: T4, in vitro transcribed/translated PGC-1β (FLAG-PGC), Q8VHJ7
T4 chain: T2 chain

Molecule: MBP-SYVN1 ΔTM-His
in vitro ubiquitination assay (E1-His, UbcH5C, HA-ubiquitin; GST capture, Western blot) [1]: synoviolin (SYVN1) has directly ubiquitinated PGC-1β

binding result [3]: no binding | half-life of PGC-1β in cells (cycloheximide chase, Western blot) [4]: 3.6 h
B1: modified synoviolin with FLAG tag (SYVN1ΔSyU/FLAG) (enzyme, UniProt Q86TM6 1-617, looked up)
chain: MFRTAVMMAASLALTGAVVAHAYYLKHQFYPTVVYLTKSSPSMAVLYIQAFVLVFLLGKVMGKVFFGQLRAAEMEHLLERSWYAVTETCLAFTVFRDDFSPRFVALFTLLLFLKCFHWLAEDRVDFMERSPNISWLFHCRIVSLMFLLGILDFLFVSHAYHSILTRGASVQLVFGFEYAILMTMVLTIFIKYVLHSVDLQSENPWDNKAVYMLYTELFTGFIKVLLYMAFMTIMINMNTLYPDATPEELQAMDNVCIICREEMVTGAKRLPCNHIFHTSCLRSWFQRQQTCPTCRMDVLRASLPAQSPPPPEPADQGPPPAPHPPPLLPQPPNFPQGLLPPFPPGMFPLWPPMGPFPPVPPPPSSGEAVAPPSTSAAALSRPSGAATTTAAGTSATAASATASGPGSGSAPEAGPAPGFPFPPPWMGMPLPPPFAFPPMPVPPAGFAGLTPEELRALEGHERQHLEARLQSLRNIHTLLDAAMLQINQYLTVLASLGPPRPATSVNSTEETATTVVAAASSTSIPSSEATTPTPGASPPAPEMERPPAPESVGTEEMPEDGEPDAAELRRRRLQKLESPVAH
notes: Deletion construct expressed in cells; also called synoviolin ΔSyU/FLAG; Synoviolin ASyU/FLAG; not shown: FLAG tag
half-life of PGC-1β (cycloheximide chase, MEF Syno-/-) [2]: SYVN1 ΔSyU has not so promoted degradation of PGC-1β

B2: modified synoviolin fused to GST (syno(236-338)) (protein)
chain: KVHTFPLFAIRPMYLAMRQFKKAVTDAIMSRRAIRNMNTLYPDATPEELQAMDNVCIICREEMVTGAKRLPCNHIFHTSCLRSWFQRQQTCPTCRMDVLRASL
in vitro ubiquitination assay [5]: polyubiquitinated PGC-1β was detected under the condition with the presence of all of ATP, PK-His-HA-Ub, E1-His, UBE2G2-His, and syno(236-338)
